The values below come from article PMC1626105.

In the assay the target is Elongin B, expressed in Saos-2 cells (UniProt Q15370). The assay is described as follows: co-immunoprecipitation (IP: myc, IB: HA) with band densitometry. The conditions noted are these: Saos-2 cells co-transfected with LANA-myc and HA-Elo.BC; parent: est. 4.0; read off a plot.
Sequence of UniProt Q15370 (Q15370 whole entry): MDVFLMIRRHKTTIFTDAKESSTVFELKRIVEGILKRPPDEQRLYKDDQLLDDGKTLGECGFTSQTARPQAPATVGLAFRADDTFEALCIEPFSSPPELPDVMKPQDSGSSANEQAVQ
“KSHV latency-associated nuclear antigen (LANA), full length, myc-tagged C217G”: the response was found to be 0.4 RD.

For the substance “KSHV latency-associated nuclear antigen (LANA), full length, myc-tagged L213G”, the response was found to be 0.4 RD.

In the case of “KSHV latency-associated nuclear antigen (LANA), full length, myc-tagged L213P; C217F”, the response is 1.3 RD.
